One experiment addresses HLA-A*02:11. Put plainly: IEDB peptide-MHC binding, purified MHC/competitive/fluorescence; filed as Kd, often an IC50 or EC50 that approximates it; ≥ and ≤ were set here for values at or beyond the usual limits of such assays.
Another experiment concerns the target HLA-A*02:01. The experiment is described as above.
For a further experiment, the target named is HLA-A*02:06. Described as above. Particulars: source organism: Human immunodeficiency virus 1.
The target in a further experiment is HLA-A*02:12. The experiment is described as above.
A further experiment concerns the target HLA-A*02:03. The experiment is described as above.
A further experiment addresses HLA-A*02:16. Described as above.
The target in the next experiment is HLA-A*69:01. The description is as above.
The target of another experiment is HLA-A*02:19. The experiment is described as above.
The target of a further experiment is HLA-B*15:02. The description is as above.
The target of a further experiment is HLA-B*39:01. The description is as above.
Another experiment concerns the target HLA-B*15:01. The description is as above.
A further experiment has as its target HLA-B*27:03. The description is as above.
A further experiment has as its target HLA-A*68:02. The description is as above.
The target of another experiment is HLA-B*57:01. The description is as above.
For another experiment, the target named is HLA-A*26:01. The description is as above.
A further experiment has as its target HLA-A*24:03. The description is as above.
The next experiment deals with HLA-B*46:01. The description is as above.
For a further experiment, the target named is HLA-B*18:01. The experiment is described as above.
The target of a further experiment is HLA-B*51:01. The experiment is described as above.
The next experiment deals with HLA-A*03:01. The description is as above.
In a further experiment the target is HLA-A*29:02. The description is as above. Particulars: source organism: Brucella suis ATCC 23445.
A further experiment has as its target HLA-B*15:17. The experiment is described as above. Particulars: source organism: Brucella suis ATCC 23445.
The target in a further experiment is HLA-C*12:03. Put plainly: IEDB peptide-MHC binding, purified MHC/direct/fluorescence; filed as Kd, often an IC50 or EC50 that approximates it; ≥ and ≤ were set here for values at or beyond the usual limits of such assays. Particulars: source organism: Bacillus anthracis str. A2012.
For a further experiment, the target named is HLA-C*03:03. Described as above. Particulars: source organism: Bacillus anthracis str. A2012.
In the next experiment the target is HLA-C*06:02. The description is as above. Particulars: source organism: Bacillus anthracis str. A2012.
The target in the next experiment is HLA-C*07:02. Described as above. Particulars: source organism: Bacillus anthracis str. A2012.
The next experiment deals with HLA-C*15:02. Described as above. Particulars: source organism: Bacillus anthracis str. A2012.
The target in the next experiment is HLA-C*14:02. Described as above. Particulars: source organism: Bacillus anthracis str. A2012.
Where [1] appears, read: source organism: Human immunodeficiency virus 1.
The mark [2] stands for this setting: source organism: Escherichia coli HS.
The mark [3] stands for this setting: source organism: Brucella suis ATCC 23445.
Where [4] appears, read: source organism: Bacillus anthracis str. A2012.

In general, Kd refers to the constant that tells how readily two partners part at equilibrium. A low value points to higher affinity.

Turning to ALVEMGHHV, the Kd with HLA-A*02:11 (setting [1]) amounted to 1.8 nM; in the experiment with HLA-A*02:01 (setting [1]), 334 nM; in the experiment with HLA-A*02:06 it was 1.18 nM; with HLA-A*02:12 (setting [1]) it was 17.5 nM; with HLA-A*02:03 (setting [1]), 3.64 nM; with HLA-A*02:16 (setting [1]) it was 3.07 nM. The Kd was 2010 nM with HLA-A*69:01 (setting [1]) and 134 nM with HLA-A*02:19 (setting [1]).

In the experiment with HLA-B*15:02 (source organism: Coxiella burnetii Dugway 5J108-111), FLRSSSAIE displayed a dissociation constant Kd of no less than 20000 nM.

The sequence GQRDTDVPY yielded an equilibrium dissociation constant (Kd) with HLA-B*15:02 (source organism: Yersinia enterocolitica subsp. enterocolitica 8081) of 1240 nM.

On to ISLWGSLLK, for which the Kd in the experiment with HLA-B*39:01 (setting [2]), with HLA-B*15:01 (setting [2]), with HLA-B*27:03 (setting [2]), with HLA-A*68:02 (setting [2]), with HLA-B*57:01 (setting [2]) and with HLA-A*02:01 (setting [2]) was no less than 20000 nM each time. The Kd with HLA-A*26:01 (setting [2]), with HLA-A*24:03 (setting [2]), with HLA-B*46:01 (setting [2]), with HLA-A*02:12 (setting [2]), with HLA-B*18:01 (setting [2]) and with HLA-A*02:16 (setting [2]) was no less than 20000 nM in each case. The Kd with HLA-B*51:01 (setting [2]) is no less than 20000 nM; in the experiment with HLA-A*03:01 (setting [2]) it was 33.9 nM; with HLA-A*69:01 (setting [2]), no less than 20000 nM; with HLA-A*02:19 (setting [2]), no less than 20000 nM.

As for ITAVNRYFK, the Kd is no less than 20000 nM with HLA-B*39:01 (setting [3]); no less than 20000 nM in the experiment with HLA-B*15:01 (setting [3]); 757 nM with HLA-A*29:02; no less than 20000 nM with HLA-B*27:03 (setting [3]); no less than 20000 nM with HLA-A*02:11 (setting [3]); no less than 20000 nM in the experiment with HLA-A*68:02 (setting [3]). The Kd with HLA-B*15:17, in the experiment with HLA-B*57:01 (setting [3]), in the experiment with HLA-A*02:01 (setting [3]), with HLA-A*26:01 (setting [3]), in the experiment with HLA-A*24:03 (setting [3]) and in the experiment with HLA-B*46:01 (setting [3]) was no less than 20000 nM throughout. The Kd was no less than 20000 nM with HLA-A*02:12 (setting [3]); no less than 20000 nM with HLA-B*18:01 (setting [3]); no less than 20000 nM in the experiment with HLA-A*02:03 (setting [3]); no less than 20000 nM in the experiment with HLA-A*02:16 (setting [3]); no less than 20000 nM with HLA-B*51:01 (setting [3]); 57 nM in the experiment with HLA-A*03:01 (setting [3]). The Kd in the experiment with HLA-A*69:01 (setting [3]) and with HLA-A*02:19 (setting [3]) was no less than 20000 nM throughout.

With KMGKAGYVT, the Kd with HLA-A*02:11 (setting [1]) is 24.5 nM; with HLA-A*02:01 (setting [1]), 323 nM; with HLA-A*02:06, 609 nM; with HLA-A*02:12 (setting [1]) it was 1210 nM; with HLA-A*02:03 (setting [1]), 196 nM; with HLA-A*02:16 (setting [1]), 261 nM. The Kd with HLA-A*69:01 (setting [1]) was no less than 20000 nM; in the experiment with HLA-A*02:19 (setting [1]) it was 6000 nM.

Regarding SMFDSWGPF, the Kd with HLA-C*12:03 was 102 nM; in the experiment with HLA-C*03:03 it was no less than 20000 nM; with HLA-C*06:02, no less than 20000 nM; with HLA-C*07:02, 224 nM; with HLA-C*15:02 it was no less than 20000 nM; in the experiment with HLA-C*14:02, 185 nM. Also, the Kd with HLA-B*15:02 (setting [4]) was determined as 5 nM; in the experiment with HLA-B*46:01 (setting [4]), 4.3 nM.

WIGQTSHGW: in the experiment with HLA-B*15:02 (source organism: Vibrio cholerae), the Kd is no less than 20000 nM.

Source of the values: the Immune Epitope Database (IEDB).
